Assay results taken from PMC12478261.

Columns and labels:
[1] = biological target: T1, mCRP (monomeric C-reactive protein) (UniProt P02741 19-224); test: SPR
T1 sequence: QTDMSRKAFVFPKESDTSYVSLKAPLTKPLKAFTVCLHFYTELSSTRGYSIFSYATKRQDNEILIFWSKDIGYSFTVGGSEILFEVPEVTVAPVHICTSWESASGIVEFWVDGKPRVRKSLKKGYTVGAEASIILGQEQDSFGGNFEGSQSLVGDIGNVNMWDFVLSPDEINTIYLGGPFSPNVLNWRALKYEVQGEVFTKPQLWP

[2] = biological target: T2, nCRP (native pentameric C-reactive protein) (UniProt P02741 19-224); test: bead pull-down, Qubit ssDNA quantification
T2 sequence: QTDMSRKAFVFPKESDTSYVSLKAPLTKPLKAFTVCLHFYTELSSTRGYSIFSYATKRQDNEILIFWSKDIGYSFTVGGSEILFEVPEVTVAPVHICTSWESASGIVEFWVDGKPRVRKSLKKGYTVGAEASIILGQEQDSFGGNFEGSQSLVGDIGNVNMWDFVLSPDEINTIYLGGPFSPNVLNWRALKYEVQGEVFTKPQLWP

| Binder | Kd [1] [nM] | binding result [2] |
| --- | --- | --- |
| CCAATGGCCCTAGGGCTGCAAATCGCTGCC (ssDNA) [ApmCRP3] | 400 | – |
| TTGACCCTTTAAGGTCGTCCGGAAACGGGC (ssDNA) [ApmCRP4] | – | no binding |
